According to US12564609B2, “Hematopoietic stem cell engraftment with a combination of agents” (The Board of Trustees of the Leland Stanford Junior …, priority 2020, dated 2026):

B1: JSP191: anti-human CD117 mAb, humanized form of SR1, aglycosylated IgG1 (antibody, chains of the INN, looked up, V domains shown)
VH: QVQLVQSGAEVKKPGASVKVSCKASGYTFTSYNMHWVRQAPGQGLEWMGVIYSGNGDTSYNQKFKGRVTITADKSTSTAYMELSSLRSEDTAVYYCARERDTRFGNWGQGTLVTVSS
VL: DIVMTQSPDSLAVSLGERATINCRASESVDIYGNSFMHWYQQKPGQPPKLLIYLASNLESGVPDRFSGSGSGTDFTLTISSLQAEDVAVYYCQQNNEDPYTFGGGTKVEIK
B2: SCF: recombinant murine stem cell factor (PeproTech), ligand of CD117 (protein, UniProt P20826 26-190, looked up)
Soluble KIT ligand: KEICGNPVTDNVKDITKLVANLPNDYMITLNYVAGMDVLPSHCWLRDMVIQLSLSLTTLLDKFSNISEGLSNYSIIDKLGKIVDDLVLCMEENAPKNIKESPKRPETRSFTPEEFFSIFNRSIDAFKDFMVASDTSDCVLSSTLGPEKDSRVSVTKPFMLPPVAA

How the values were obtained:
CD117 = target: T1, CD117 (Homo sapiens, UniProt P10721); conditions: children with SCID, single agent conditioning prior to allogeneic HCT; cited from earlier work
T1 construct: JSP191, used as single agent conditioning prior to allogeneic HCT in children with SCID; endogenous in cells; host or cells: hematopoietic stem and progenitor cells of human SCID patients (in vivo, clinical trial)

human MDS HSC = conditions: MDS-xenografted mice; cited from earlier work
HSC = conditions: non-human primates; cited from earlier work
[1] = test system: hematopoietic stem and progenitor cells; test: In vivo HSC depletion by anti-CD117 mAb in combination with AZA; design: species or system C57BL/6 mice; conditions: 1 μg exogenous murine SCF for 5 days in mice treated with ACK2 and AZA, day 11
Method: A. Schematic of treatment protocol. C57BL/6 mice were injected retroorbital with single dose of ACK2 500 μg 5 days prior start treatment with AZA. AZA was administered in dose 5 mg/kg/d daily for 5 days. Mice were sacrificed 6, 10, 17 and 20 days after first dose of AZA and bone marrow (BM) and spleens were harvested and analyzed for HSC-depletion and depletion of mature myeloid and lymphoid cells. […] Magnification 100 μm. C. Absolute numbers of the different HSPC compartments in the BM and spleen of untreated controls and mice treated with ACK2 in combination with AZA at 6, 10, 17 20 days after start AZA as measured by flow cytometry; Lin^−Sca1^+c-Kit^+(LSK)CD150+CD48^− (LT-HSC), LSKCD150^−CD48^− (ST-HSC), LSKCD150^+CD48^+ (MPP2), LSKCD150^−CD48^+ (MPP3/4). Data represent mean±SD (n=3-4 per group per timepoint). Statistics were calculated Mann-Whitney test (*P<0.05). […] ACK2 and 2B8 were administered as a single dose of 500 μg retroorbital 5 days prior treatment with AZA; AZA was given at dose 5 mg/kg/d for 5 days. BM was analyzed at d6, d10 and d20 after the start of AZA. […] Statistics were calculated by Kruskal-Wallis test (*P<0.05, ***P<0.001). […] Mice were sacrificed at day 11 after first dose of AZA and BM and spleen were analyzed for HSC-depletion. […] Statistics were calculated by Mann-Whitney test (*P<0.05, ns=non-significant). […]

T1 sequence (P10721 26-976): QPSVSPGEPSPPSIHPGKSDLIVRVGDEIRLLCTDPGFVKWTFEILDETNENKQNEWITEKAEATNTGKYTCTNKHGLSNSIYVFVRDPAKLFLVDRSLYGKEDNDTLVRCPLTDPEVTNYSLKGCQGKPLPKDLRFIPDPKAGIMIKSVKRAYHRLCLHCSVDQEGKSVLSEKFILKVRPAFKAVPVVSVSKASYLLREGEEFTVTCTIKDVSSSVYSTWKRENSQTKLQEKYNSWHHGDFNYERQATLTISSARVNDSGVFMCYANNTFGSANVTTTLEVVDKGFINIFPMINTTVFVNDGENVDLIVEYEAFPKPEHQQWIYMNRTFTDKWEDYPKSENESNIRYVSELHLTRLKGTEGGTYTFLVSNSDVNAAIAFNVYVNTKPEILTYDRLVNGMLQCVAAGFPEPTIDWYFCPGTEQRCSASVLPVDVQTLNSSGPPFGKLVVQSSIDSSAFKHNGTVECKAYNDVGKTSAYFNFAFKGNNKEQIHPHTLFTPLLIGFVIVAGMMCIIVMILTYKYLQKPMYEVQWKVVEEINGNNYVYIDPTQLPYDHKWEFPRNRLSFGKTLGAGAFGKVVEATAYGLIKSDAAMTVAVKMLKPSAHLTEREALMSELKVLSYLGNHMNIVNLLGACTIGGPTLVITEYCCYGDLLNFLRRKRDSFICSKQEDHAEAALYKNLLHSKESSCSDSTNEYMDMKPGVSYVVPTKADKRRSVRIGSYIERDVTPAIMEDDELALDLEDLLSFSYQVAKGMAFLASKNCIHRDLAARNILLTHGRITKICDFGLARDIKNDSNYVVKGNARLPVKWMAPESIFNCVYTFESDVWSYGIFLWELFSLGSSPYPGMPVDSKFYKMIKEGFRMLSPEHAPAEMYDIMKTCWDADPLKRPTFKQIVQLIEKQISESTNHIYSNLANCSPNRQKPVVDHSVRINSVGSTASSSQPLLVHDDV

| Molecule | long-term HSC engraftment (CD117) | tolerability (CD117) | depletion of human MDS HSC (human MDS HSC) | HSC elimination and off-target toxicity (HSC) | ST-HSC, MPP2 and MPP3/4 in the bone marrow [1] | recovery of LT-HSC in the bone marrow [1] |
| --- | --- | --- | --- | --- | --- | --- |
| B1 | all showed evidence of long-term HSC engraftment | tolerated JSP191 well, without safety issues | depletes human MDS HSC | can eliminate HSC with little to no off-target toxicity |  |  |
| B2 |  |  |  |  | no changes | faster recovery of LT-HSC |
